According to the supplement of paper PMC6755084:

B1: F1*; a variant is named by its letters at N, in order (parent)
chain: GAGACCGCAACTGAAAAGTTGTTATCACTTGTCGNANNNNNNTTNGNNNGGNTNNNGTTCTGCACGTAGAAGCAAAAGGC
B2: F1*; the commonest letter at each place (parent)
chain: GAGACCGCAACTGAAAAGTTGTTATCACTTGTCGTAAGACACTTTGGATGGGTTGAAGTTCTGCACGTAGAAGCAAAAGGC

Variants of: B1
Assay: fraction ligated after 30 min (ligated reads / total reads); higher = more ligase activity
Conditions: with F1*sub RNA substrate (template-directed ligation), 42 °C
Experimental: (§1)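 Chip-synthesised pool of F1* ligase ribozyme variants (all single and double substitutions, single, double and triple deletions in the catalytic core and GAA bulge, plus designed variants) was transcribed with T7 and reacted as a pool with excess substrate F1*sub for 30 min at 42 C in 50 mM EPPS pH 8.5, 25 mM MgCl2. Ligated and unligated bands were separated by PAGE, barcoded by RT and deep sequenced; fraction ligated = ligated reads / total reads per variant, relative activity = FL / FL of wild type (0.826). Sequences are the DNA template of the ribozyme.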

Variant	fraction ligated
TAGACACTGATGTCG	0.0205
TAGACACTGATGTCT	0.0184
TAGACACTGATGTGA	0.848
TAGACACTGATGTGC	0.802
TAGACACTGATGTGG	0.352
TAGACACTGATGTGT	0.349
TAGACACTGATGTTA	0.834
TAGACACTGATGTTC	0.0084
TAGACACTGATGTTG	0.0257
TAGACACTGATGTTT	0.0147
TAGACACTGATTGAA	0.703
TAGACACTGTGTGAA	0.354
TAGACATGATGTGAA	0.829
TAGACCTGATGTGAA	0.839
TAGCACTGATGTGAA	0.827
AGACACTGATGTGAA	0.843
TGACACTGATGTGAA	0.849

Variants of: B2
Assay: as above
Conditions: with F1*sub RNA substrate (template-directed ligation), 42 °C
Experimental: as §1

Variant	fraction ligated
T22C	0.819
T23A	0.837
T23A A24C	0.782
T23A A24G	0.764
T23A A24T	0.781
T23A A27C	0.82
T23A A27G	0.794
T23A A27T	0.794
T23A A36C	0.826
T23A A36G	0.847
T23A A36T	0.838
T23A A37C	0.82
T23A A37G	0.84
T23A A37T	0.811
T23A A39C	0.789
T23A A39G	0.819
T23A A39T	0.794
T23A A41C	0.757
T23A A41G	0.765
T23A A41T	0.807
T23A A48C	0.727
T23A A48G	0.596
T23A A48T	0.68

Variant	fraction ligated
T23A A56C	0.653
T23A A56G	0.686
T23A A56T	0.754
T23A A57C	0.805
T23A A57G	0.818
T23A A57T	0.813
T23A C26A	0.318
T23A C26G	0.116
T23A C26T	0.794
T23A C28A	0.787
T23A C28G	0.804
T23A C28T	0.753
T23A C33A	0.855
T23A C33G	0.838
T23A C33T	0.848
T23A C40A	0.815
T23A C40G	0.838
T23A C40T	0.833
T23A C42A	0.817
T23A C42G	0.822
T23A C42T	0.817
T23A G31A	0.816
T23A G31C	0.779

Variant	fraction ligated
T23A G31T	0.789
T23A G34A	0.814
T23A G34C	0.813
T23A G34T	0.812
T23A G38A	0.809
T23A G38C	0.799
T23A G38T	0.795
T23A G46A	0.749
T23A G46C	0.731
T23A G46T	0.479
T23A G47A	0.783
T23A G47C	0.0295
T23A G47T	0.09
T23A G50A	0.477
T23A G50C	0.255
T23A G50T	0.699
T23A G55A	0.801
T23A G55C	0.292
T23A G55T	0.783
T23A T25A	0.652
T23A T25C	0.762
